Measurements as given in IntAct's records for PubMed 26307080.

B1: Protein phosphatase 1 regulatory subunit 15B (Homo sapiens), Q5SWA1 (parent)
chain: MEPGTGGSRKRLGPRAGFRFWPPFFPRRSQAGSSKFPTPLGPENSGNPTLLSSAQPETRVSYWTKLLSQLLAPLPGLLQKVLIWSQLFGGMFPTRWLDFAGVYSALRALKGREKPAAPTAQKSLSSLQLDSSDPSVTSPLDWLEEGIHWQYSPPDLKLELKAKGSALDPAAQAFLLEQQLWGVELLPSSLQSRLYSNRELGSSPSGPLNIQRIDNFSVVSYLLNPSYLDCFPRLEVSYQNSDGNSEVVGFQTLTPESSCLREDHCHPQPLSAELIPASWQGCPPLSTEGLPEIHHLRMKRLEFLQQASKGQDLPTPDQDNGYHSLEEEHSLLRMDPKHCRDNPTQFVPAAGDIPGNTQESTEEKIELLTTEVPLALEEESPSEGCPSSEIPMEKEPGEGRISVVDYSYLEGDLPISARPACSNKLIDYILGGASSDLETSSDPEGEDWDEEAEDDGFDSDSSLSDSDLEQDPEGLHLWNSFCSVDPYNPQNFTATIQTAARIVPEEPSDSEKDLSGKSDLENSSQSGSLPETPEHSSGEEDDWESSADEAESLKLWNSFCNSDDPYNPLNFKAPFQTSGENEKGCRDSKTPSESIVAISECHTLLSCKVQLLGSQESECPDSVQRDVLSGGRHTHVKRKKVTFLEEVTEYYISGDEDRKGPWEEFARDGCRFQKRIQETEDAIGYCLTFEHRERMFNRLQGTCFKGLNVLKQC

Variants of: B1
Settings: with pp1g_human PPP1CC

effect of a mutation on the interaction	Variant
decreasing interaction strength	R658C

Variants of: B1
Settings: with pp1g_human PPP1CC
Remark: another data set of the same source

effect of a mutation on the interaction	Variant
disrupting interaction strength	R658C
